Data: publication PMC12442453, “An asymmetric tetrabody is a potent and efficacious agonist of the erythropoietin receptor in vitro and in vivo” (Protein Science : A Publication of the Protein Society, 2025)

Columns and labels:
[1] = biological target: human EPOR, endogenous on TF-1 cells (Homo sapiens (TF-1 cells), UniProt P19235); test: cell-based or functional assay
His-tagged ECD of CD131 = biological target: T1, His-tagged ECD of CD131 (Homo sapiens (assumed), UniProt P32927); test: ELISA; His-tagged ECDs of EPOR, CD131 or EPHB4 tested against Db-Fc protein; settings: both partners purified
T1 construct: β-common cytokine receptor (β-CR, CD131), ectodomain; also called β-common cytokine receptor; β-CR
T1 sequence (P32927 17-443): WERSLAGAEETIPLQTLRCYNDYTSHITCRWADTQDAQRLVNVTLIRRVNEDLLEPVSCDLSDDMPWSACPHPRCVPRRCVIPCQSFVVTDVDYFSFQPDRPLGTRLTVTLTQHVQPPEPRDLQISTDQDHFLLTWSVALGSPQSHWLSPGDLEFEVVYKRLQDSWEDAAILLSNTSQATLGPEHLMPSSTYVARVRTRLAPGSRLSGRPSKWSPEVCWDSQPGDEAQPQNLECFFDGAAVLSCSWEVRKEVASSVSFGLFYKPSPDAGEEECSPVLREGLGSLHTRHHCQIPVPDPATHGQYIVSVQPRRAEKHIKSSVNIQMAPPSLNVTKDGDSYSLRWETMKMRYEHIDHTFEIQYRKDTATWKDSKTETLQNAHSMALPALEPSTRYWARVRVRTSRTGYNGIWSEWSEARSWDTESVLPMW

His-tagged ECD of EPHB4 = biological target: T2, His-tagged ECD of EPHB4 (Homo sapiens (assumed), UniProt P54760); test: as above; settings: both partners purified
T2 construct: receptor tyrosine kinase EPHB4, ectodomain
T2 sequence (P54760 16-539): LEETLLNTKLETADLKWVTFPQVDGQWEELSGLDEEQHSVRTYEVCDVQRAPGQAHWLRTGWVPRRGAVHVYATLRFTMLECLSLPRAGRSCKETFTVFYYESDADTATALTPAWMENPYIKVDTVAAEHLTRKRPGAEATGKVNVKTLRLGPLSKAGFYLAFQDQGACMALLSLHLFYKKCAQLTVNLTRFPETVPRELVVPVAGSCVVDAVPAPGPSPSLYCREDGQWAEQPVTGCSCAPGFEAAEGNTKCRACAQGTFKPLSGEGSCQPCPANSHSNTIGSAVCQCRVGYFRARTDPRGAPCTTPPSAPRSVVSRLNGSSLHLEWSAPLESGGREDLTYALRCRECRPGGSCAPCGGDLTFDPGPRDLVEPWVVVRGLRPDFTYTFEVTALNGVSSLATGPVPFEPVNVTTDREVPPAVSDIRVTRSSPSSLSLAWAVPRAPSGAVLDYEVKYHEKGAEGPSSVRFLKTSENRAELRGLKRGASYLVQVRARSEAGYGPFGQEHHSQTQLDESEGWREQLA

[2] = biological target: T3, human EPOR ectodomain (ECD) fused to a human Fc domain (EPOR-Fc) (human, UniProt P19235); test: BLI; results and legends: EPOR-Fc immobilised, Db-Fc in solution, 600 s association, 600 s dissociation, global 1:1 fit; methods: Abs captured on anti-human Fc sensors, His-EPOR in solution in 3-fold dilutions from 100 nM, 25°C, PBS 0.05% Tween 20; settings: both partners purified
T3 construct: erythropoietin receptor (EPOR), human, ectodomain; Results and legends name EPOR-Fc as the immobilised protein of the ELISA and BLI experiments; the methods describe His-EPOR instead; also called human EPOR-Fc
T3 sequence (P19235 25-250): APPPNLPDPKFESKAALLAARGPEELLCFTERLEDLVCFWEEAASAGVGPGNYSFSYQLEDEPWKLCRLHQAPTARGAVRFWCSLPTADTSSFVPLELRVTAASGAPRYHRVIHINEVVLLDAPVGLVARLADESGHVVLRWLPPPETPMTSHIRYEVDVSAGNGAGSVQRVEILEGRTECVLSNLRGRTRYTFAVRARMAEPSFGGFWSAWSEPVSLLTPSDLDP

[3] = biological target: T3, human EPOR ectodomain (ECD) fused to a …; test: ELISA; EPOR-Fc (human or mouse) immobilised by results and legends, Db-Fc or VL–VH protein in solution (single point and serial dilutions), 1 h room temperature, PBST, anti-Fc-HRP; apparent affinities; the methods name His-EPOR as the coated protein; settings: both partners purified

human EPOR, endogenous on TF-1 cells, sequence (P19235 25-508): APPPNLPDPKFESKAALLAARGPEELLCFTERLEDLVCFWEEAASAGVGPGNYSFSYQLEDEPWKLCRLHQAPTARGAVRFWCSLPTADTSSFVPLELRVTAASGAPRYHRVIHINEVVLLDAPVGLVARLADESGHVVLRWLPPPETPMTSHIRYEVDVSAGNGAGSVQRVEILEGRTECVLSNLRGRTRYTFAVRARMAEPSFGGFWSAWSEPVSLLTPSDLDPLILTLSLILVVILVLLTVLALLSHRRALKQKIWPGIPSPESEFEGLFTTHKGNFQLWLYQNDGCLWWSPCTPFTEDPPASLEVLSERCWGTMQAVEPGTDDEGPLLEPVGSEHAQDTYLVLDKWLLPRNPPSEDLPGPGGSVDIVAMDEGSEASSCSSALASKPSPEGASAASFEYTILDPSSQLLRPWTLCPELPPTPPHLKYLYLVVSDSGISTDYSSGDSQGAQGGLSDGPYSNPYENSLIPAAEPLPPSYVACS

Binder	UT-7/Epo cell proliferation (ATP/luciferase luminescence), EC50 [1]	binding result (His-tagged ECD of CD131)	binding result (His-tagged ECD of EPHB4)	Kd [2]	EC50 [3]	binding result [2]
Db-Fc 1 (Fc fusion, VL domain of clone 1 (human framework of the Db library); Gly5 linker between VL and VH; VH domain of clone 1; IMGT numbering, heavy chain; Diabody-Fc fusion (VL-Gly5-VH-Fc); Protein-A purified preparation: mainly the dimeric Db-Fc, with a minor earlier-eluting SEC peak (putative Tb-Fc2); also called Db 1; VL–VH 1; source: Expi293, transient expression, purified (rProtein-A); not shown: Fc, …) VH: EVQLVESGGGLVQPGGSLRLSCAASGFNLYSYYIHWVRQAPGKGLEWVASISPYYSYTYYADSVKGRFTISADTSKNTAYLQMNSLRAEDTAVYYCARHGYGAMDYWGQGTLVTVSS VL: DIQMTQSPSSLSASVGDRVTITCRASQSVSSAVAWYQQKPGKAPKLLIYSASSLYSGVPSRFSGSRSGTDFTLTISSLQPEDFATYYCQQSSYSLITFGQGTKVEIK	0.2 nM	no binding	no binding	1.5 nM	1.5 nM	
Db-Fc 1.1 (Fc fusion, VL domain of variant 1.1; Gly5 linker between VL and VH; VH domain of variant 1.1; Diabody-Fc fusion; >99% eluted as the Db-Fc form by SEC; Called Db-Fcmix 1.1 where not fractionated by preparative SEC; also called variant 1.1; Db-Fcmix 1.1; source: Expi293, transient expression, purified (rProtein-A); not shown: Fc, C-terminal, kept) VH: EVQLVESGGGLVQPGGSLRLSCAASGFNLRSYYMHWVRQAPGKGLEWVASISPYYSYTYYADSVKGRFTISADTSKNTAYLQMNSLRAEDTAVYYCARHGYGAMDYWGQGTLVTVSS VL: DIQMTQSPSSLSASVGDRVTITCRASQSVSSAVAWYQQKPGKAPKLLIYSASSLYSGVPSRFSGSRSGTDFTLTISSLQPEDFATYYCQQSSYSLITFGQGTKVEIK				5 nM		

More lines, now with the values ahead:

UT-7/Epo cell proliferation (ATP/luciferase luminescence), EC50 [1]	binding result (His-tagged ECD of CD131)	binding result (His-tagged ECD of EPHB4)	Kd [2]	EC50 [3]	binding result [2]	Binder
					binds	Db-Fc 1.3 (Fc fusion, VL domain of variant 1.3; derived from the library on Db 1.1 (PDB 9NWU); Gly5 linker between VL and VH; VH domain of variant 1.3; the fraction is named in the readout of each functional row; also called variant 1.3; VL–VH 1.3; source: Expi293, transient expression, purified (rProtein-A); fractions by preparative SEC; not shown: Fc, C-terminal, kept) VH: EVQLVESGGGLVQPGGSLRLSCAASGFNLRSYYMHWVRQAPGKGLEWVASISPHYGYTYYADSVKGRFTISADTSKNTAYLQMNSLRAEDTAVYYCARHGYSAMDYWGQGTLVTVSS VL: DIQMTQSPSSLSASVGDRVTITCRASQSVSSAVAWYQQKPGKAPKLLIYSASSLYSGVPSRFSGSRSGTDFTLTISSLQPEDFATYYCQQSSDSLFTFGQGTKVEIK
			1.8 nM			Db-Fc 1.2 (Fc fusion, VL domain of variant 1.2; Gly5 linker between VL and VH; VH domain of variant 1.2; Diabody-Fc fusion; nearly homogeneous Db-Fc peak by SEC; In vivo used both as unfractionated mixture and as the Db-Fc fraction from preparative SEC; also called variant 1.2; Db-Fcmix 1.2; source: Expi293, transient expression, purified (rProtein-A); not shown: Fc, C-terminal, kept) VH: EVQLVESGGGLVQPGGSLRLSCAASGFNLRSYYMHWVRQAPGKGLEWVASIAPYHGYTYYADSVKGRFTISADTSKNTAYLQMNSLRAEDTAVYYCARHGYGALDYWGQGTLVTVSS VL: DIQMTQSPSSLSASVGDRVTITCRASQSVSSAVAWYQQKPGKAPKLLIYSASSLYSGVPSRFSGSRSGTDFTLTISSLQPEDFATYYCQQSSNFLITFGQGTKVEIK
0.4 nM	no binding	no binding	5.1 nM	0.6 nM		Db-Fc 2 (Fc fusion, VL domain of clone 2 (human framework of the Db library); Gly5 linker between VL and VH; VH domain of clone 2; Diabody-Fc fusion (VL-Gly5-VH-Fc); Protein-A purified preparation: mainly the dimeric Db-Fc, with a minor earlier-eluting SEC peak; also called Db 2; VL–VH 2; source: Expi293, transient expression, purified (rProtein-A); not shown: Fc, C-terminal, kept) VH: EVQLVESGGGLVQPGGSLRLSCAASGFNLSSYYIHWVRQAPGKGLEWVASISPYYSYTYYADSVKGRFTISADTSKNTAYLQMNSLRAEDTAVYYCARHSYAALDYWGQGTLVTVSS VL: DIQMTQSPSSLSASVGDRVTITCRASQSVSSAVAWYQQKPGKAPKLLIYSASSLYSGVPSRFSGSRSGTDFTLTISSLQPEDFATYYCQQAYWPITFGQGTKVEIK
